In patent publication US20260144882A1 (BIO THERA SOLUTIONS, published 2026):

T1: human Nectin-4 extracellular antigen hNectin-4-His (human, UniProt Q96NY8 32-349)
T1 construct: C-terminal 8xHis tag included
T1 sequence: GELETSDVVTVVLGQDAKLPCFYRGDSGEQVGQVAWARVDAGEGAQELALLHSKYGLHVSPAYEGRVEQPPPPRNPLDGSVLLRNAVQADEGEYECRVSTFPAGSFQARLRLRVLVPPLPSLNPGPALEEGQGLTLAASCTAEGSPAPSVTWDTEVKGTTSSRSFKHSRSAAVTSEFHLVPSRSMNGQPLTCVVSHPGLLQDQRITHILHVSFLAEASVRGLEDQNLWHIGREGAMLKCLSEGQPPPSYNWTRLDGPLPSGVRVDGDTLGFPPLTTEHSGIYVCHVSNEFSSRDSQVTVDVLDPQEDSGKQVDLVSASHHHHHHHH


molecular target: T1, human Nectin-4 extracellular antigen …; assay: ELISA, phage scFv supernatant 1:50

Row | Binder | OD value
1 | 1G8-2G12 scFv (scFv, V domains shown, phage clone supernatant) VH: EVQLVESGGGLVQPGGSLRLSCAASGFTFSNNAMSWVRQAPGKGLEWVSAIYASTDGRSYADSVKGRFTISRDNSKNTLYLQMNSLRAEDTAVYYCARQTEDRSYGYDLDYWGQGTLVTVSS VL: DIQMTQSPSSLSASVGDRVTITCRASQGISSYLAWYQQKPGKAPKLLIYAASSLQSGVPSRFSGSGSGTDFTLTISSLQPEDFATYYCQQHYTTPPTFGQGTKVEIKR | 1.5 OD
2 | 10F4-2A9 scFv (scFv, V domains shown, phage clone supernatant) VH: EVQLVESGGGLVQPGGSLRLSCAASGYTFTDYDMSWVRQAPGKGLEWVSGIKQYKGYTSYADSVKGRFTISRDNSKNTLYLQMNSLRAEDTAVYYCAREYSDVVDYVSVRTPLDYWGQGTLVTVSS VL: DIQMTQSPSSLSASVGDRVTITCRASQGISSYLAWYQQKPGKAPKLLIYAASSLQSGVPSRFSGSGSGTDFTLTISSLQPEDFATYYCQQHYTTPPTFGQGTKVEIKR | 1.57 OD
3 | 10F4-1G5 scFv (scFv, V domains shown, phage clone supernatant) VH: EVQLVESGGGLVQPGGSLRLSCAASGYTFDSSWMSWVRQAPGKGLEWVSSIDAYGDYNFYADSVKGRFTISRDNSKNTLYLQMNSLRAEDTAVYYCAREYSDVVDYVSVRTPLDYWGQGTLVTVSS VL: DIQMTQSPSSLSASVGDRVTITCRASQGISSYLAWYQQKPGKAPKLLIYAASSLQSGVPSRFSGSGSGTDFTLTISSLQPEDFATYYCQQHYTTPPTFGQGTKVEIKR | 1.41 OD
4 | 10F4-1A1 scFv (scFv, V domains shown, phage clone supernatant) VH: EVQLVESGGGLVQPGGSLRLSCAASGFSFDNYDMSWVRQAPGKGLEWVSSIKPGSAYKFYADSVKGRFTISRDNSKNTLYLQMNSLRAEDTAVYYCAREYSDVVDYVSVRTPLDYWGQGTLVTVSS VL: DIQMTQSPSSLSASVGDRVTITCRASQGISSYLAWYQQKPGKAPKLLIYAASSLQSGVPSRFSGSGSGTDFTLTISSLQPEDFATYYCQQHYTTPPTFGQGTKVEIKR | 1.69 OD
5 | 10F4-1D11 scFv (scFv, V domains shown, phage clone supernatant) VH: EVQLVESGGGLVQPGGSLRLSCAASGFIFSDFDMSWVRQAPGKGLEWVSGIKQSSAGINYADSVKGRFTISRDNSKNTLYLQMNSLRAEDTAVYYCAREYSDVVDYVSVRTPLDYWGQGTLVTVSS VL: DIQMTQSPSSLSASVGDRVTITCRASQGISSYLAWYQQKPGKAPKLLIYAASSLQSGVPSRFSGSGSGTDFTLTISSLQPEDFATYYCQQHYTTPPTFGQGTKVEIKR | 1.46 OD
6 | 10F4-1B7 scFv (scFv, V domains shown, phage clone supernatant) VH: EVQLVESGGGLVQPGGSLRLSCAASGFNFSGFDMSWVRQAPGKGLEWVSGIKAYKSTADYADSVKGRFTISRDNSKNTLYLQMNSLRAEDTAVYYCAREYSDVVDYVSVRTPLDYWGQGTLVTVSS VL: DIQMTQSPSSLSASVGDRVTITCRASQGISSYLAWYQQKPGKAPKLLIYAASSLQSGVPSRFSGSGSGTDFTLTISSLQPEDFATYYCQQHYTTPPTFGQGTKVEIKR | 1.6 OD
7 | 10F4-1E12 scFv (scFv, V domains shown, phage clone supernatant) VH: EVQLVESGGGLVQPGGSLRLSCAASGYNFSSYDMSWVRQAPGKGLEWVSGISDTGDYANYADSVKGRFTISRDNSKNTLYLQMNSLRAEDTAVYYCAREYSDVVDYVSVRTPLDYWGQGTLVTVSS VL: DIQMTQSPSSLSASVGDRVTITCRASQGISSYLAWYQQKPGKAPKLLIYAASSLQSGVPSRFSGSGSGTDFTLTISSLQPEDFATYYCQQHYTTPPTFGQGTKVEIKR | 1.52 OD
8 | 10F4-1 scFv (scFv, V domains shown, phage clone supernatant) VH: EVQLVESGGGLVQPGGSLRLSCAASGDSFTNYWMSWVRQAPGKGLEWVSGISQGGSYAYYADSVKGRFTISRDNSKNTLYLQMNSLRAEDTAVYYCAREYSDVVDYVSVRTPLDYWGQGTLVTVSS VL: DIQMTQSPSSLSASVGDRVTITCRASQGISSYLAWYQQKPGKAPKLLIYAASSLQSGVPSRFSGSGSGTDFTLTISSLQPEDFATYYCQQHYTTPPTFGQGTKVEIKR | 1.39 OD
9 | 10F4-1F9 scFv (scFv, V domains shown, phage clone supernatant) VH: EVQLVESGGGLVQPGGSLRLSCAASGFSFGGFDMSWVRQAPGKGLEWVSGIKTYGGYRSYADSVKGRFTISRDNSKNTLYLQMNSLRAEDTAVYYCAREYSDVVDYVSVRTPLDYWGQGTLVTVSS VL: DIQMTQSPSSLSASVGDRVTITCRASQGISSYLAWYQQKPGKAPKLLIYAASSLQSGVPSRFSGSGSGTDFTLTISSLQPEDFATYYCQQHYTTPPTFGQGTKVEIKR | 1.48 OD
10 | 10F4-1C10 scFv (scFv, V domains shown, phage clone supernatant) VH: EVQLVESGGGLVQPGGSLRLSCAASGYNFGSYDMSWVRQAPGKGLEWVSGIKTYGGNTHYADSVKGRFTISRDNSKNTLYLQMNSLRAEDTAVYYCAREYSDVVDYVSVRTPLDYWGQGTLVTVSS VL: DIQMTQSPSSLSASVGDRVTITCRASQGISSYLAWYQQKPGKAPKLLIYAASSLQSGVPSRFSGSGSGTDFTLTISSLQPEDFATYYCQQHYTTPPTFGQGTKVEIKR | 1.52 OD
11 | 10F4-1A3 scFv (scFv, V domains shown, phage clone supernatant) VH: EVQLVESGGGLVQPGGSLRLSCAASGYSFSNYDMSWVRQAPGKGLEWVSGIKGWKSYTGYADSVKGRFTISRDNSKNTLYLQMNSLRAEDTAVYYCAREYSDVVDYVSVRTPLDYWGQGTLVTVSS VL: DIQMTQSPSSLSASVGDRVTITCRASQGISSYLAWYQQKPGKAPKLLIYAASSLQSGVPSRFSGSGSGTDFTLTISSLQPEDFATYYCQQHYTTPPTFGQGTKVEIKR | 1.53 OD
12 | 10F4-1B2 scFv (scFv, V domains shown, phage clone supernatant) VH: EVQLVESGGGLVQPGGSLRLSCAASGFSFGNYWMSWVRQAPGKGLEWVSGIDGHSSYAFYADSVKGRFTISRDNSKNTLYLQMNSLRAEDTAVYYCAREYSDVVDYVSVRTPLDYWGQGTLVTVSS VL: DIQMTQSPSSLSASVGDRVTITCRASQGISSYLAWYQQKPGKAPKLLIYAASSLQSGVPSRFSGSGSGTDFTLTISSLQPEDFATYYCQQHYTTPPTFGQGTKVEIKR | 1.64 OD
13 | 10F4-1F2 scFv (scFv, V domains shown, phage clone supernatant) VH: EVQLVESGGGLVQPGGSLRLSCAASGYNFTNYYMSWVRQAPGKGLEWVSSISAYSDNRNYADSVKGRFTISRDNSKNTLYLQMNSLRAEDTAVYYCAREYSDVVDYVSVRTPLDYWGQGTLVTVSS VL: DIQMTQSPSSLSASVGDRVTITCRASQGISSYLAWYQQKPGKAPKLLIYAASSLQSGVPSRFSGSGSGTDFTLTISSLQPEDFATYYCQQHYTTPPTFGQGTKVEIKR | 1.4 OD
14 | 10F4-1G7 scFv (scFv, V domains shown, phage clone supernatant) VH: EVQLVESGGGLVQPGGSLRLSCAASGYNFGDYDMSWVRQAPGKGLEWVSSIIGHGDTKFYADSVKGRFTISRDNSKNTLYLQMNSLRAEDTAVYYCAREYSDVVDYVSVRTPLDYWGQGTLVTVSS VL: DIQMTQSPSSLSASVGDRVTITCRASQGISSYLAWYQQKPGKAPKLLIYAASSLQSGVPSRFSGSGSGTDFTLTISSLQPEDFATYYCQQHYTTPPTFGQGTKVEIKR | 1.54 OD
15 | 10F4-1C4 scFv (scFv, V domains shown, phage clone supernatant) VH: EVQLVESGGGLVQPGGSLRLSCAASGFNFTDYWMSWVRQAPGKGLEWVSSIIGDDSTNHYADSVKGRFTISRDNSKNTLYLQMNSLRAEDTAVYYCAREYSDVVDYVSVRTPLDYWGQGTLVTVSS VL: DIQMTQSPSSLSASVGDRVTITCRASQGISSYLAWYQQKPGKAPKLLIYAASSLQSGVPSRFSGSGSGTDFTLTISSLQPEDFATYYCQQHYTTPPTFGQGTKVEIKR | 1.46 OD
16 | 10F4-1B5 scFv (scFv, V domains shown, phage clone supernatant) VH: EVQLVESGGGLVQPGGSLRLSCAASGFNFTDYWMSWVRQAPGKGLEWVSSIIGDDSTNHYADSVKGRFTISRDNSKNTLYLQMNSLRAEDTAVYYCAREYSDVVDYVSVRTPLDYWGQGTLVTVSS VL: DIQMTQSPSSLSASVGDRVTITCRASQGISSYLAWYQQKPGKAPKLLIYAASSLQSGVPSRFSGSGSGTDFTLTISSLQPEDFATYYCQQHYTTPPTFGQGTKVEIKR | 1.53 OD
17 | 10F4-1E10 scFv (scFv, V domains shown, phage clone supernatant) VH: EVQLVESGGGLVQPGGSLRLSCAASGDTFDTYAMSWVRQAPGKGLEWVSGISQWGAYASYADSVKGRFTISRDNSKNTLYLQMNSLRAEDTAVYYCAREYSDVVDYVSVRTPLDYWGQGTLVTVSS VL: DIQMTQSPSSLSASVGDRVTITCRASQGISSYLAWYQQKPGKAPKLLIYAASSLQSGVPSRFSGSGSGTDFTLTISSLQPEDFATYYCQQHYTTPPTFGQGTKVEIKR | 1.29 OD
18 | 10F4-1D3 scFv (scFv, V domains shown, phage clone supernatant) VH: EVQLVESGGGLVQPGGSLRLSCAASGFSFYDYDMSWVRQAPGKGLEWVSSIIQSGSTAFYADSVKGRFTISRDNSKNTLYLQMNSLRAEDTAVYYCAREYSDVVDYVSVRTPLDYWGQGTLVTVSS VL: DIQMTQSPSSLSASVGDRVTITCRASQGISSYLAWYQQKPGKAPKLLIYAASSLQSGVPSRFSGSGSGTDFTLTISSLQPEDFATYYCQQHYTTPPTFGQGTKVEIKR | 1.52 OD
19 | 10F4-1C3 scFv (scFv, V domains shown, phage clone supernatant) VH: EVQLVESGGGLVQPGGSLRLSCAASGYSFSDYWMSWVRQAPGKGLEWVSSIKQTGGVKHYADSVKGRFTISRDNSKNTLYLQMNSLRAEDTAVYYCAREYSDVVDYVSVRTPLDYWGQGTLVTVSS VL: DIQMTQSPSSLSASVGDRVTITCRASQGISSYLAWYQQKPGKAPKLLIYAASSLQSGVPSRFSGSGSGTDFTLTISSLQPEDFATYYCQQHYTTPPTFGQGTKVEIKR | 1.59 OD
20 | 10F4-1F8 scFv (scFv, V domains shown, phage clone supernatant) VH: EVQLVESGGGLVQPGGSLRLSCAASGYTFTDYDMSWVRQAPGKGLEWVSSIITDGGGAFYADSVKGRFTISRDNSKNTLYLQMNSLRAEDTAVYYCAREYSDVVDYVSVRTPLDYWGQGTLVTVSS VL: DIQMTQSPSSLSASVGDRVTITCRASQGISSYLAWYQQKPGKAPKLLIYAASSLQSGVPSRFSGSGSGTDFTLTISSLQPEDFATYYCQQHYTTPPTFGQGTKVEIKR | 1.49 OD
